Results as given in patent publication US20220033520A1 (published 2022).

B1: anti-gD antibody comprising a hIgG1 with a YQAY (Q95, M252Y/T307Q/Q311A/N434Y) Fc modification (anti-gD-hIgG1-YQAY) (antibody)
Fc: PAPELLGGPSVFLFPPKPKDTLYISRTPEVTCVVVDVSHEDPEVKFNWYVDGVEVHNAKTKPREEQYNSTYRVVSVLQVLHADWLNGKEYKCKVSNKALPAPIEKTISKAKGQPREPQVYTLPPSRDELTKNQVSLTCLVKGFYPSDIAVEWESNGQPENNYKTTPPVLDSDGSFFLYSKLTVDKSRWQQGNVFSCSVMHEALHYHYTQKSLSLSPGK
B2: anti-BACE1 hIgG1 antibody, Fc modification Q95 (M252Y/T307Q/Q311A/N434Y) (antibody)
Fc: B1 Fc

Experiments:
[1] = molecular target: T1, human FcRn complex (FCGRT and beta-2 microglobulin), recombinant, purified (human, UniProt P55899 24-297; P61769 21-119); assay: -; pH6
T1 sequence (P55899 24-297, chain 1 of 2): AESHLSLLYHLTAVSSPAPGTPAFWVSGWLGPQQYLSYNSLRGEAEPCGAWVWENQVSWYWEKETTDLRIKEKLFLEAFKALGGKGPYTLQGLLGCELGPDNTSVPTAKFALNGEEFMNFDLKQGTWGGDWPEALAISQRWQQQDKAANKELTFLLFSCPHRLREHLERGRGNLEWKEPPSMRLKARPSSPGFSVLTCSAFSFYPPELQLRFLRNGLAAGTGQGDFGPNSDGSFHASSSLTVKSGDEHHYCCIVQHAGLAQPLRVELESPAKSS
T1 sequence (P61769 21-119, chain 2 of 2): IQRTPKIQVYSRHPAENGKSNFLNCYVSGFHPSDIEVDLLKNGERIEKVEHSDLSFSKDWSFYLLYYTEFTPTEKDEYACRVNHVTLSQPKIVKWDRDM

[2] = molecular target: T1, human FcRn complex (FCGRT and beta-2 …); assay: -; pH6; remark: listed apart in the source
[3] = molecular target: T1, human FcRn complex (FCGRT and beta-2 …); assay: -; pH6; remark: listed apart in the source
[4] = molecular target: T1, human FcRn complex (FCGRT and beta-2 …); assay: ?; pH 6
[5] = molecular target: T1, human FcRn complex (FCGRT and beta-2 …); assay: ?; pH 6; remark: listed apart in the source
[6] = molecular target: T1, human FcRn complex (FCGRT and beta-2 …); assay: -; pH7.4
[7] = molecular target: T1, human FcRn complex (FCGRT and beta-2 …); assay: -; pH7.4; remark: listed apart in the source
[8] = molecular target: T1, human FcRn complex (FCGRT and beta-2 …); assay: -; pH7.4; remark: listed apart in the source
[9] = molecular target: T1, human FcRn complex (FCGRT and beta-2 …); assay: ?; pH 7.4
[10] = molecular target: T1, human FcRn complex (FCGRT and beta-2 …); assay: ?; pH 7.4; remark: listed apart in the source
[11] = molecular target: T1, human FcRn complex (FCGRT and beta-2 …); assay: -; pH6; remark: listed apart in the source
[12] = molecular target: T1, human FcRn complex (FCGRT and beta-2 …); assay: ?; pH 6; remark: listed apart in the source
[13] = molecular target: T1, human FcRn complex (FCGRT and beta-2 …); assay: -; pH7.4; remark: listed apart in the source
[14] = molecular target: T1, human FcRn complex (FCGRT and beta-2 …); assay: ?; pH 7.4; remark: listed apart in the source

Row | Binder | Kd [1] | Kd [2] | Kd [3] | Kd [4] | Kd [5] | Kd [6] | Kd [7] | Kd [8] | Kd [9] | Kd [10] | Kd [11] | Kd [12] | Kd [13] | Kd [14]
1 | B1 | 2 nM | 2 nM | 2 nM | 2 nM | 2 nM | 333 nM | 333 nM | 333 nM | 333 nM | 333 nM |  |  |  | 
2 | B2 |  |  |  |  |  |  |  |  |  |  | 2 nM | 1.98 nM | 333 nM | 333 nM
